# In patent publication US20190307836A1 (Bicycle, published 2019):
# Starred links: 1 amine or outer side, 2 acyl side, 3 side chain; linkers in the order of their positions; H or OH if unused. Positions of bridges follow the written chain, without caps; N, C: chain ends. Non-standard residues stand in square brackets, D forms with d. Chains are numbered I, II in the order given. No end group written: not given here. *: point of attachment. TATA = O=C(CC[*:1])N1CN(C(=O)CC[*:2])CN(C(=O)CC[*:3])C1; Dap(PYA) = diaminopropionic acid bearing 4-pentynoyl; 1Nal = N[C@@H](Cc1cccc2ccccc12)C(=O)O; Hyp = O=C(O)[C@@H]1C[C@@H](O)CN1; hArg = N=C(N)NCCCC[C@H](N)C(=O)O; tBuAla = CC(C)(C)C[C@H](N)C(=O)O; Nle = CCCC[C@H](N)C(=O)O; Pent4ynoyl = C#CCCC(=O)*; Dap = NC[C@H](N)C(=O)O; βAla = NCCC(=O)O; Sar = CNCC(=O)O
# B1: heterotandem bicyclic peptide complex BCY10569 (peptide)
# peptide 1: {Pent4ynoyl-βAla}-[Sar][Sar][Sar][Sar][Sar][Sar][Sar][Sar][Sar][Sar]CP[1Nal][dD]CM[hArg]DWSTP[Hyp]WC
# peptide 2: Ac-C[tBuAla]PE[dK]PYCFADPY[Nle]CA
# modifications: linker I:11-I:15-I:25, II:1-II:8-II:15 via TATA; not fully specified (C-terminus, bridges); numbers in words are those of the source; also: chains joined by PEG12 linker, triazole from PYA, linker on chain 2 D-Lys side chain
# B2: heterotandem bicyclic peptide complex BCY11018 (peptide)
# peptide 1: SDKCSAGWLTMCQXLHLCPSH
# peptide 2: CXPEKPYCFADPYXCA
# modifications: not fully specified; BCY8920: N-terminal acetyl; tBuAla1, D-Lys4 bearing the linker, Nle12; Ci, Cii, Ciii on TATA scaffold; BCY10861: N-terminal acetyl; K(PYA)9 bearing the linker; Ci, Cii, Ciii on TATA scaffold
# B3: heterotandem bicyclic peptide complex BCY10580 (peptide)
# peptide 1: {Pent4ynoyl-βAla}-[Sar][Sar][Sar][Sar][Sar][Sar][Sar][Sar][Sar][Sar]SDKCSAGWLTMCQKLHLC
# peptide 2: Ac-C[tBuAla]PE[dA]PYCFADPY[Nle]C[Dap]
# modifications: linker I:14-I:22-I:28, II:1-II:8-II:15 via TATA; not fully specified (C-terminus); numbers in words are those of the source; also: linker to a chain's N/C-terminus via PEG12
# B4: heterotandem bicyclic peptide complex BCY10582 (peptide)
# peptide 1: SDKCSAGWLTMCQXLHLC
# peptide 2: CXPEAPYCFADPYXC
# modifications: not fully specified; BCY9172: N-terminal acetyl; tBuAla1, D-Ala4, Nle12; C-terminal Dap (diaminopropionic acid) bearing the linker; Ci, Cii, Ciii on TATA scaffold; BCY10045: free N-terminus (NH2-); K(PYA)9 bearing the linker; Ci, Cii, Ciii on TATA scaffold
# B5: heterotandem bicyclic peptide complex BCY11017 (peptide)
# peptide 1: SDKCSAGWLTMCQXLHLCPSH
# peptide 2: CXPKAPYCFADPYXCA
# modifications: not fully specified; BCY8919: N-terminal acetyl; tBuAla1, Lys3 bearing the linker, D-Ala4, Nle12; Ci, Cii, Ciii on TATA scaffold; BCY10861: N-terminal acetyl; K(PYA)9 bearing the linker; Ci, Cii, Ciii on TATA scaffold
# B6: heterotandem bicyclic peptide complex BCY10567 (peptide)
# peptide 1: {Pent4ynoyl-βAla}-[Sar][Sar][Sar][Sar][Sar][Sar][Sar][Sar][Sar][Sar]CP[1Nal][dD]CM[hArg]DWSTP[Hyp]WC
# peptide 2: Ac-C[tBuAla]PK[dA]PYCFADPY[Nle]CA
# modifications: linker I:11-I:15-I:25, II:1-II:8-II:15 via TATA; not fully specified (C-terminus, bridges); numbers in words are those of the source; also: chains joined by PEG12 linker, triazole from PYA, linker on chain 2 Lys4 side chain
# B7: heterotandem bicyclic peptide complex BCY11380 (peptide)
# peptide 1: SDKCSAGWLTMCQXLHLCPSH
# peptide 2: CXPEKPYCFADPYXCA
# modifications: not fully specified; BCY8920: N-terminal acetyl; tBuAla1, D-Lys4 bearing the linker, Nle12; Ci, Cii, Ciii on TATA scaffold; BCY10861: N-terminal acetyl; K(PYA)9 bearing the linker; Ci, Cii, Ciii on TATA scaffold
# B8: heterotandem bicyclic peptide complex BCY8939 (peptide)
# peptide 1: CXDWCHWTFSHGHPC
# peptide 2: ACIEEGQYCFADPYXC
# modifications: BCY7732: N-terminal acetyl; Nle12; C-terminal Dap (diaminopropionic acid) bearing the linker; Ci, Cii, Ciii on TATA scaffold; BCY8938: N-terminal [PYA]-[B-Ala]-[Sar10]- (linker on PYA); HArg1; Ci, Cii, Ciii on TATA scaffold
# B9: heterotandem bicyclic peptide complex BCY11379 (peptide)
# peptide 1: SDKCSAGWLTMCQXLHLCPSH
# peptide 2: CXPKAPYCFADPYXCA
# modifications: not fully specified; BCY8919: N-terminal acetyl; tBuAla1, Lys3 bearing the linker, D-Ala4, Nle12; Ci, Cii, Ciii on TATA scaffold; BCY10861: N-terminal acetyl; K(PYA)9 bearing the linker; Ci, Cii, Ciii on TATA scaffold
# B10: heterotandem bicyclic peptide complex BCY11377 (peptide)
# peptide 1: SDKCSAGWLTMCQXLHLCPSH
# peptide 2: CXPEKPYCFADPYXCA
# modifications: not fully specified; BCY8920: N-terminal acetyl; tBuAla1, D-Lys4 bearing the linker, Nle12; Ci, Cii, Ciii on TATA scaffold; BCY10861: N-terminal acetyl; K(PYA)9 bearing the linker; Ci, Cii, Ciii on TATA scaffold
# B11: heterotandem bicyclic peptide complex BCY11376 (peptide)
# peptide 1: SDKCSAGWLTMCQXLHLCPSH
# peptide 2: CXPKAPYCFADPYXCA
# modifications: not fully specified; BCY8919: N-terminal acetyl; tBuAla1, Lys3 bearing the linker, D-Ala4, Nle12; Ci, Cii, Ciii on TATA scaffold; BCY10861: N-terminal acetyl; K(PYA)9 bearing the linker; Ci, Cii, Ciii on TATA scaffold
# B12: heterotandem bicyclic peptide complex BCY10578 (peptide)
# peptide 1: {Pent4ynoyl-βAla}-[Sar][Sar][Sar][Sar][Sar][Sar][Sar][Sar][Sar][Sar]CP[1Nal][dD]CM[hArg]DWSTP[Hyp]WC
# peptide 2: Ac-C[tBuAla]PE[dA]PYCFADPY[Nle]C[Dap]
# modifications: linker I:11-I:15-I:25, II:1-II:8-II:15 via TATA; not fully specified (C-terminus); numbers in words are those of the source; also: linker to a chain's N/C-terminus via CH2
# B13: heterotandem bicyclic peptide complex BCY10573 (peptide)
# peptide 1: CP[1Nal][dD]CM[hArg]DWSTP[Hyp]WC
# peptide 2: Ac-C[tBuAla]PE[dA]PYCFADPY[Nle]C-{Dap(PYA)}
# modifications: linker I:1-I:5-I:15, II:1-II:8-II:15 via TATA; not fully specified (C-terminus); also: linker to a chain's N/C-terminus via PEG5
# B14: heterotandem bicyclic peptide complex BCY10570 (peptide)
# peptide 1: {Pent4ynoyl-βAla}-[Sar][Sar][Sar][Sar][Sar][Sar][Sar][Sar][Sar][Sar]A[hArg]DC[Hyp]LVNPLCLHP[dD]W[hArg]C
# peptide 2: Ac-C[tBuAla]PE[dK]PYCFADPY[Nle]CA
# modifications: linker I:14-I:21-I:28, II:1-II:8-II:15 via TATA; not fully specified (C-terminus); numbers in words are those of the source; also: chains joined by PEG12 linker, triazole from PYA, linker on chain 2 D-Lys side chain
# B15: heterotandem bicyclic peptide complex BCY10577 (peptide)
# peptide 1: {Pent4ynoyl-βAla}-[Sar][Sar][Sar][Sar][Sar][Sar][Sar][Sar][Sar][Sar]A[hArg]DC[Hyp]LVNPLCLHP[dD]W[hArg]C
# peptide 2: Ac-C[tBuAla]PE[dA]PYCFADPY[Nle]C[Dap]
# modifications: linker I:14-I:21-I:28, II:1-II:8-II:15 via TATA; not fully specified (C-terminus); numbers in words are those of the source; also: chains joined by CH2 linker, triazole from PYA, linker on Dap side chain
# B16: heterotandem bicyclic peptide complex BCY10574 (peptide)
# peptide 1: A[hArg]DC[Hyp]LVNPLCLHP[dD]W[hArg]C
# peptide 2: Ac-C[tBuAla]PK(Pent4ynoyl)[dA]PYCFADPY[Nle]CA
# modifications: linker I:4-I:11-I:18, II:1-II:8-II:15 via TATA; not fully specified (C-terminus); also: chains joined by PEG5 linker on chain 1 N-terminus, triazole to K(PYA)
# B17: heterotandem bicyclic peptide complex BCY10575 (peptide)
# peptide 1: A[hArg]DC[Hyp]LVNPLCLHP[dD]W[hArg]C
# peptide 2: Ac-C[tBuAla]PE[dK](Pent4ynoyl)PYCFADPY[Nle]CA
# modifications: linker I:4-I:11-I:18, II:1-II:8-II:15 via TATA; not fully specified (C-terminus); also: chains joined by PEG5 linker on chain 1 N-terminus, triazole to D-Lys(PYA)
# B18: heterotandem bicyclic peptide complex BCY10576 (peptide)
# peptide 1: A[hArg]DC[Hyp]LVNPLCLHP[dD]W[hArg]C
# peptide 2: Ac-C[tBuAla]PE[dA]PYCFADPY[Nle]C-{Dap(PYA)}
# modifications: linker I:4-I:11-I:18, II:1-II:8-II:15 via TATA; not fully specified (C-terminus); also: chains joined by PEG5 linker on chain 1 N-terminus, triazole to Dap(PYA)
# B19: heterotandem bicyclic peptide complex BCY10568 (peptide)
# peptide 1: {Pent4ynoyl-βAla}-[Sar][Sar][Sar][Sar][Sar][Sar][Sar][Sar][Sar][Sar]A[hArg]DC[Hyp]LVNPLCLHP[dD]W[hArg]C
# peptide 2: Ac-C[tBuAla]PK[dA]PYCFADPY[Nle]CA
# modifications: linker I:14-I:21-I:28, II:1-II:8-II:15 via TATA; not fully specified (C-terminus); numbers in words are those of the source; also: chains joined by PEG12 linker, triazole from PYA, linker on chain 2 Lys4 side chain
# Biological target: CD137 expressed on cells (CHO cells expressing CD137); Jurkat cells of the Promega CD137 luciferase reporter … (UniProt Q07011 24-255, limits assumed)
# Sequence (Q07011 24-255 limits assumed): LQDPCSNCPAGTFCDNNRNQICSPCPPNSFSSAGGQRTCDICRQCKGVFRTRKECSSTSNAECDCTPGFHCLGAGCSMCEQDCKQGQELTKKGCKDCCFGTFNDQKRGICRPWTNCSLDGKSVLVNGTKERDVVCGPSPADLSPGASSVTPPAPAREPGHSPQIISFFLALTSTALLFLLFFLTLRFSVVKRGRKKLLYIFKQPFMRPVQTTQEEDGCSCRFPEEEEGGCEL
# Experiment: cell-based or functional assay
Binder,"EC50 (nM), CD137 reporter assay, co-culture with H1376 (Nectin4) [nM]","Fold Induction over Background, CD137 reporter assay, co-culture with H1376 (Nectin4) [fold]","EC50 (nM), CD137 reporter assay, co-culture with RKO (PD-L1) [nM]","Fold Induction over Background, CD137 reporter assay, co-culture with RKO (PD-L1) [fold]","Fold Induction over Background, CD137 reporter assay, co-culture with MC38 (mouse PD-L1) [fold]"
B1,1.2,52,–,–,–
B2,–,–,27,–,–
B3,–,–,28,3,–
B4,–,–,28,4,–
B5,–,–,66,–,–
B6,1.7,45,–,–,–
B7,–,–,34,–,–
B8,–,–,–,–,< 2
B9,–,–,68,–,–
B10,–,–,40,–,–
B11,–,–,127,–,–
B12,0.42,–,–,–,–

# Biological target: T1, Recombinant human CD137 (R&D systems) (human, UniProt Q07011 24-186, biotinylated with EZ-Link Sulfo-NHS-LC-LC-Biotin)
# T1 construct: Bought protein; also called human CD137 protein; TNFRSF9
# Experiment: SPR (Biacore), biotinylated human CD137 on streptavidin chip
# Experimental: The protein was desalted to remove uncoupled biotin using spin columns into PBS.
# For analysis of peptide binding, a Biacore T200 or a Biacore 3000 instrument was used with a XanTec CMD500D chip. Streptavidin was immobilized on the chip using standard amine-coupling chemistry at 25° C. with HBS-N (10 mM HEPES, 0.15 M NaCl, pH 7.4) as the running buffer. Briefly, the carboxymethyl dextran surface was activated with a 7 min injection of a 1:1 ratio of 0.4 M 1-ethyl-3-(3-dimethylaminopropyl) carbodiimide hydrochloride (EDC)/0.1 M N-hydroxy succinimide (NHS) at a flow rate of 10 μl/min. For capture of streptavidin, the protein was diluted to 0.2 mg/ml in 10 mM sodium acetate (pH 4.5) and captured by injecting 120 μl of onto the activated chip surface. Residual activated groups were blocked with a 7 min injection of 1 M ethanolamine (pH 8.5) and biotinylated CD137 captured to a level of 270-1500 RU. Buffer was changed to PBS/0.05% Tween 20 and a dilution series of the peptides was prepared in this buffer with a final DMSO concentration of 0.5%. The top peptide concentration was 500 nM with 6 further 2-fold or 3-fold dilutions. The SPR analysis was run at 25° C. at a flow rate of 90 μl/min with 60 seconds association and 900 seconds dissociation. After each cycle a regeneration step (10 μl of 10 mM glycine pH 2) was employed. Data were corrected for DMSO excluded volume effects as needed. All data were double-referenced for blank injections and reference surface using standard processing procedures and data processing and kinetic fitting were performed using Scrubber software, version 2.0c (BioLogic Software). Data were fitted using simple 1:1 binding model allowing for mass transport effects where appropriate.
row,Binder,Kd [nM]
1,B13,3.39

# Biological target: CD137 expressed on cells (CHO cells expressing CD137; Jurkat cells of the Promega CD137 luciferase reporter assay) (UniProt Q07011)
# Sequence (Q07011 24-255 limits assumed): as above
# Experiment: cell-based or functional assay
Binder,"EC50 (nM), CD137 reporter assay, co-culture with PC3 (EphA2) [nM]","Fold Induction over Background, CD137 reporter assay, co-culture with PC3 (EphA2) [fold]"
B14,0.41,38
B15,0.28,37
B16,1,32
B17,0.62,38
B18,0.51,38
B19,0.25,32
